Test results as given in paper PMC2757917, “Mutations in the DNA-Binding Domain of NR2E3 Affect In Vivo Dimerization and Interaction with CRX” (PLoS ONE, 2009).

Target: the molecule itself
Test: native gel or EMSA; total protein extracts of transfected HEK293T cells on an 8% PAA-gel under non-denaturing conditions, Western blot with an anti-NR2E3 antibody

B1: human NR2E3 wild-type protein (pcDNA3.1/HisC-hNR2E3) (natural protein)
chain: not shown
notes: NR2E3 (PNR), photoreceptor-specific nuclear receptor, human, SwissProt Q9Y5X4; band of 45 kDa on the denaturing gel; also called PNR; pcDNA-NR2E3-His/C; source: HEK293T, transiently transfected, in lysate
**Q.** For B1, which “stoichiometry N” value is on record?
**A.** 2
